From patent US20090285799A1 (CSL, published 2009)

Columns and labels:
[1] = molecular target: T1, human IL-13Rα1 on normal human dermal fibroblast (NHDF) cells (human, UniProt P78552 27-427); assay: cell-based or functional assay
T1 sequence: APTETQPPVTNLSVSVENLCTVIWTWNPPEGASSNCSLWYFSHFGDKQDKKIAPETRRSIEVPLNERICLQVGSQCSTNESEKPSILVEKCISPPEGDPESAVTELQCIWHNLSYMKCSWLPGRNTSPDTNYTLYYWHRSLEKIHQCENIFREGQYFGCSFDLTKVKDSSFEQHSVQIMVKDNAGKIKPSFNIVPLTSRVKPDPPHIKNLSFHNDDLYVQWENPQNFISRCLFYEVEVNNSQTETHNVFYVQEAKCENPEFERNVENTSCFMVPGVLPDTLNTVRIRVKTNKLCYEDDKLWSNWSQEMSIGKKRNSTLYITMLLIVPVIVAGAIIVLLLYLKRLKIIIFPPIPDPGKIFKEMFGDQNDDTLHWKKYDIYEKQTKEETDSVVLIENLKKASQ

[2] = molecular target: T1, human IL-13Rα1 on normal human dermal …; assay: cell-based or functional assay; remark: listed apart in the source
[3] = molecular target: T2, hIL-13Rα1.ECR (N-terminal FLAG-tagged fusion protein of the extracellular region of human IL-13Rα1) (human, UniProt P78552 29-343); assay: ELISA on plate-bound hIL-13Rα1.ECR
T2 construct: also called human IL-13Rα1.ECR; hIL-13Rα1 extracellular domain
T2 sequence: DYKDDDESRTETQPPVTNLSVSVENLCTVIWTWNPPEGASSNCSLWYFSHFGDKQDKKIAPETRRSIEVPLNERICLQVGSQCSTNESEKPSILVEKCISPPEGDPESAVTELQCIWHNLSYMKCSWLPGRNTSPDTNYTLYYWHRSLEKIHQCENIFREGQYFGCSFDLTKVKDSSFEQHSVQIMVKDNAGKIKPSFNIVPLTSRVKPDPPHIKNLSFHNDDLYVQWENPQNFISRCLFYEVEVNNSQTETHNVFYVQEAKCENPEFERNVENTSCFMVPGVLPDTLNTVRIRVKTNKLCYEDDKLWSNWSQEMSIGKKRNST

[4] = molecular target: T2, hIL-13Rα1.ECR (N-terminal FLAG-tagged …); assay: BIACORE SPR, hIL-13Rα1.ECR immobilized on CM5 chip, antibody as analyte, bivalent model
Procedure: BIACORE-Based Studies. Human IL-13Rα1.ECR (40 μg/ml in 20 mM Sodium Acetate, pH 4.2) of Example 1 was immobilized to a sensorchip (CM5, Biosensor, Sweden) using standard NHS/EDC chemistry according to the manufacturer's instructions at a set immobilization value, for example, 1000RU. Ethanolamine (1.0 M) pH 8.0 was used to quench residual active esters post hIL-13Rα1.ECR immobilization.
Analysis of binding of antibody (concentration range of 1.4 nM to 150 nM, two-fold dilutions) to the immobilized hIL-13Rα1. ECR was performed in duplicate. Sensorgrams generated were fitted to a bivalent ligand binding model to simultaneously derive association (kₐ) and dissociation (kd) rates and used to determine binding affinity (KD, Biaevaluation software, BIACORE™, Sweden).

[5] = molecular target: T3, IL-13Rα1 on whole blood cells or PBMCs (TARC release assay); assay: cell-based or functional assay
T3 sequence (P78552 whole entry, species assumed, looked up): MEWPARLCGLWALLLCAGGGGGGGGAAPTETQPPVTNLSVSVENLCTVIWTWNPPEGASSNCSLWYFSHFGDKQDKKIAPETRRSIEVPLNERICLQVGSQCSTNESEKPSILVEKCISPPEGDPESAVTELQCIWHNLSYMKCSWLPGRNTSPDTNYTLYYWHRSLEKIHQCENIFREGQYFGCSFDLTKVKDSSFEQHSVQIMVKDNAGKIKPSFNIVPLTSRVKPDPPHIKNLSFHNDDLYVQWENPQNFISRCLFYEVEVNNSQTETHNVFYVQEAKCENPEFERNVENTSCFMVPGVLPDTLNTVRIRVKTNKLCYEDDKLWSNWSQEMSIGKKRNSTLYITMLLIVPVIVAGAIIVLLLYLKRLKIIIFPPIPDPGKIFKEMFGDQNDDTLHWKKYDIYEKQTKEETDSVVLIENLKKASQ

Row | Binder | NHDF IL-13-induced STAT6 phosphorylation (EC50) [1] | NHDF cells IL-13 Eotaxin release (IC50) [on average] [2] | Kd [3] | Kd [4] | IL-13-stimulated TARC release in whole blood or PBMCs (IC50) [5]
1 | 2B6 (antibody, V domains shown, Human monoclonal antibody purified from a hybridoma of HuMAb transgenic mice; also called PTA-6932; 2136) VH: QVQLVESGGGVVQPGRSLRLSCAASGFTFSYYGMHWVRQAPGKGLEWVAFIWYDGSNKYYEDSVKGRFTISRDNSKNTLYLQMNSLRAEDTAVYYCARVAAAGAVEYFQHWGQGTLVTVSS VL: AIQLTQSPSSLSASVGDRVTITCRASQVISSVLAWYQQKSGKGPKLLIYDASSLESGVPSRFSGSGSGTDFTLTISSLQPEDFATYYCQQFNSYPLTFGGGTKVEIK | 7 µg/mL | 3.5 µg/mL | 0.36 nM | 16.5 nM | –
2 | 8B4 (antibody, V domains shown, Human monoclonal antibody purified from a hybridoma of HuMAb transgenic mice; also called PTA-6934) VH: EVQVLESGGGLVQPGGSLRLSCAASGFTFSNYAMTWVRQAPGKGLEWVSTISGRGYSIYYADSVKGRFTISRDNSKNTVYLQMNSLRAEDTAVYYCAKEEGHWYFDVWGRGTLVTVSS VL: EIVLTQSPDFQSVTPKEKVTITCRASQSIGSSLHWYQQKPDQSPKLLIKYASQSFSGVPSRFSGSGSGTDFTLTINSLEAEDAAAYYCHQSSSLPYTFGQGTKLEIK | ~2.9 µg/mL | 1 µg/mL | 0.267 nM | 4.6 nM | ~2.6 µg/mL
3 | 6C11 (antibody, V domains shown, Human monoclonal antibody purified from a hybridoma of HuMAb transgenic mice; also called PTA-6930) VH: EVQVLESGGGLVQPGGSLRLSCAASGFTFNNYALTWVRQAPGKGLEWVSTISGRGYSIYYADSVKGRFTISRDNSKNTVYLQMNSLRAEDTAVYYCAKEEGHWFFDVWGRGTLVTVSS VL: EIVLTQSPDFQSVTPKEKVTITCRASQSIGSSLHWYQQKPDQSPKLLIKYASQSFSGVPSRFSGSGSGTDFTLTINSLEAEDAAAYYCHQSSSLPYTFGQGTKLEIK | 3.8 µg/mL | 9.7 µg/mL | 0.087 nM | 2.1 nM | 2.5 µg/mL
